Target: T1, CD177 (UniProt Q8N6Q3 22-408, limits assumed)
T1 construct: Immobilized on a GLH sensor chip by amine chemistry for SPR; also called neutrophil receptor CD177
T1 sequence (looked up): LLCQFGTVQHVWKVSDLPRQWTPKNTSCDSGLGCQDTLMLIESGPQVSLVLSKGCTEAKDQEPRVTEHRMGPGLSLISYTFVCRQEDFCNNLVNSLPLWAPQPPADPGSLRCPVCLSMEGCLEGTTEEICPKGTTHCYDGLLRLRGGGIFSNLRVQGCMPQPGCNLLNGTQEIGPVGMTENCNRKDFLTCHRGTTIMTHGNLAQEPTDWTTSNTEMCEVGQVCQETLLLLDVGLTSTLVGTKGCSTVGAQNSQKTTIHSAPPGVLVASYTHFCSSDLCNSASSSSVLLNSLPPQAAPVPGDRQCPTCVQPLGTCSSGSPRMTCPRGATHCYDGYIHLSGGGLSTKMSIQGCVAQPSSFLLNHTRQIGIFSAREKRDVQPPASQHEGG
Assay: SPR (ProteOn XPR36), CD177 immobilized on GLH chip by amine chemistry, PR3 variant in a concentration series
Description: FIG. 2: Comparison of wtPR3 and monomeric PR3 properties by SPR and ELISA. […] The antibodies each recognize distinct, non-overlapping epitopes on PR3. wtPR3 (left bar) and the monomeric Trp222Ala PR3 variant (right bar) are equally well recognized by the antibodies.
Experiments were performed on a ProteOn XPR36 instrument (BioRad) with proteins immobilized to GLH sensor chips (BioRad) using standard amine chemistry. The binding interaction of a concentration series of soluble monomeric Trp222Ala PR3 variant with immobilized CD177 was assessed (FIG. 2A).

B1: monomeric Trp222Ala PR3 variant (enzyme)
chain: IVGGHEAQPHSRPYMASLQMRGNPGSHFCGGTLIHPSFVLTAAHCLRDIPQRLVNVVLGAHNVRTQEPTQQHFSVAQVFLNNYDAENKLNDVLLIQLSSPANLSASVATVQLPQQDQPVPHGTQCLAMGWGRVGAHDPPAQVLQELNVTVVTFFCRPHNICTFVPRRKAGICFGDSGGPLICDGIIQGIDSFVIAGCATRLFPDFFTRVALYVDWIRSTLRRVEAKGRP
notes: Made as a C-terminal fusion with human Ig1 Fc and secreted through an N-terminal Ig1 signal peptide; The propeptides aa 26-27 and aa 249-256 may also be absent, and residues left by the TEV site may remain at the C-terminus; also called monomeric PR3
Q: How did the Kd turn out when B1 was run?
A: 57 nM

Reference: patent US20220088279A1 (GAMBRO LUNDIA, published 2022)
